Results as given in US10864269B2, “Therapeutic combinations comprising anti-CD73 antibodies and uses thereof” (MedImmune Limited, priority 2014, dated 2020).

Biological target: T1, Murine CD73 ECD (Mus musculus, UniProt Q61503)
T1 construct: made in house; host or cells: mammalian cells
T1 sequence (Q61503 29-551 limits assumed): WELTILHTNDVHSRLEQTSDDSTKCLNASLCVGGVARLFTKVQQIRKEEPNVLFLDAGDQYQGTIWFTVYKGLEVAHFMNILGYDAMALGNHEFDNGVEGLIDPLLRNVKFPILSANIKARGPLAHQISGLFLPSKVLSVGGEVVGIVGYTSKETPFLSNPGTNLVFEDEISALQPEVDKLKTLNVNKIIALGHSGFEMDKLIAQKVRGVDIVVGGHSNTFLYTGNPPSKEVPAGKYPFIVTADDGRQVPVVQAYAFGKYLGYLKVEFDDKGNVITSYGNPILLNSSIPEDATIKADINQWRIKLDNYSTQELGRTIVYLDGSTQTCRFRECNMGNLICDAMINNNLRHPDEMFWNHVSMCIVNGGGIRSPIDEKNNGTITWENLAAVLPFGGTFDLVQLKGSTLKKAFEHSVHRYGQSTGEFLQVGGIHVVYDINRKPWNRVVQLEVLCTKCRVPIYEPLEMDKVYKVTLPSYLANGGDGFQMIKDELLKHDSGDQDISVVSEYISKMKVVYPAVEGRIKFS
Assay: Surface plasmon resonance (ProteOn), murine CD73
Format: binding
Details: SPR
Experimental: A ProteOn XPR36 instrument was used to characterize binding of MEDI9447 to human, murine, and cynomolgus CD73 ECD. MEDI9447 was affinity-captured using an anti-human Fc antibody. CD73 ECD was in the mobile phase. The association and dissociation of CD73 to MEDI9447 could be accurately described with the Langmuir 1:1 model.
The affinity of enhanced anti-CD73 antibodies (in IgG1-TM format) to human, murine, and cynomolgus CD73 was determined by flow cytometry and surface plasmon resonsance (SPR) (Table 13). The enhanced antibodies had pM affinity to cellular and recombinant CD73 from the three species.

“MEDI9447: IgG1 with CD730010-derived VL of SEQ ID NO: 68 and VH of SEQ ID NO: 82” was tested, and the ka was 2.41e+06 M⁻¹ s⁻¹ and the kd was 2.32e-06 s⁻¹.
